Measured values reported in patent US20120022128.

How the values were obtained:
[1] = tested on: T1, recombinant PKIB
T1 sequence: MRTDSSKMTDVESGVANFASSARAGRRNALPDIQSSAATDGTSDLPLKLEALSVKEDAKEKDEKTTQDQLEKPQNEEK

[2] = tested on: recombinant Akt

Substance: recombinant PKA-C kinase
- phosphorylation of Akt-Ser473 by PKA-C, in vitro kinase assay with recombinant proteins [1]: the phosphorylation level of Akt (Ser473) was clearly enhanced by addition of PKIB
- phosphorylation of Akt-Ser473, in vitro kinase assay with recombinant proteins (western blot with anti-phospho-Akt (Ser473) antibody) [2]: phosphorylated Ser473-specific antibody detected phosphorylated Akt when PKA-C kinase reacted with recombinant Akt
